Measured values published in publication PMC6158489.
Several values for one entry are separate records, joined by “and”; a condition that tells them apart may be missing. Equal entries are not always repeated.

Test system: VpsR (Vibrio cholerae)
Assay: EMSA

For PvpsL promoter fragment (-97 to +113), the Kd was 2220 nM and 1660 nM.
